Assay [1] deals with two-chain factor VII-activating protease (tcFSAP) (human). Kind of assay: SDS-stable complex formation, SDS-PAGE and Western blot.
Assay [2] shares this target. Kind of assay: enzyme inhibition kinetics.
Assay [3] has the same target. Kind of assay: enzyme inhibition kinetics. The source holds these as a separate data set.
Assay [4] has the same target. Description: enzyme inhibition kinetics. This is another data set of the same source.
Assay [5] shares this target. Description: enzyme inhibition kinetics. The source holds these as a separate data set.
The target is the same in assay [6]. Kind of assay: enzyme inhibition kinetics. The source holds these as a separate data set.

Read-outs that look alike come from different tables or passages of the source.

“recombinant human wild-type plasminogen activator inhibitor-1 (PAI-1) (from UniProt P05121 24-402) (natural protein)” registered a stoichiometry N in assay [1] of 1. Also, the second-order inhibition rate constant Ka in assay [2] was 443000 M⁻¹ s⁻¹; in assay [3], 623000 M⁻¹ s⁻¹; in assay [4], 558000 M⁻¹ s⁻¹; in assay [5] it was 338000 M⁻¹ s⁻¹; in assay [6], 1.61e+06 M⁻¹ s⁻¹.
